This is an account of results in patent publication US20110165116A1.

Some results are limits rather than exact numbers.

One experiment has as its target CCR2 (mouse) (UniProt P51683). Put plainly: cell-based or functional assay.
Experiment [1] deals with ICAM-1-Fc (Homo sapiens (Human)) (UniProt P05362). Nature of the experiment: laminar flow adhesion assay, human T cells on coated ICAM-1-Fc.
Chain of UniProt P05362 (P05362 28-480 limits assumed): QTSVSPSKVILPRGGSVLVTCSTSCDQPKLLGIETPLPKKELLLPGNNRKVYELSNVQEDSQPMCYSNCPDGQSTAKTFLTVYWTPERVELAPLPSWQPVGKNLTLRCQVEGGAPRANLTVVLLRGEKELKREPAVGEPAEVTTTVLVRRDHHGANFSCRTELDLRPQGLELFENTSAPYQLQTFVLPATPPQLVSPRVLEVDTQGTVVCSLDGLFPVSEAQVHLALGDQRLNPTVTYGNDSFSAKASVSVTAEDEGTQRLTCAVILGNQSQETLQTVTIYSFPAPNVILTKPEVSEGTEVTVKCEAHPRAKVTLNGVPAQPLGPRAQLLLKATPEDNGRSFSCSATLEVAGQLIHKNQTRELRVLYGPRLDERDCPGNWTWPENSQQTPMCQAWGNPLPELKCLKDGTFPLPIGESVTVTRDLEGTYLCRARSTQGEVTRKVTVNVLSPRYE

Chain of UniProt P51683 (P51683 whole entry): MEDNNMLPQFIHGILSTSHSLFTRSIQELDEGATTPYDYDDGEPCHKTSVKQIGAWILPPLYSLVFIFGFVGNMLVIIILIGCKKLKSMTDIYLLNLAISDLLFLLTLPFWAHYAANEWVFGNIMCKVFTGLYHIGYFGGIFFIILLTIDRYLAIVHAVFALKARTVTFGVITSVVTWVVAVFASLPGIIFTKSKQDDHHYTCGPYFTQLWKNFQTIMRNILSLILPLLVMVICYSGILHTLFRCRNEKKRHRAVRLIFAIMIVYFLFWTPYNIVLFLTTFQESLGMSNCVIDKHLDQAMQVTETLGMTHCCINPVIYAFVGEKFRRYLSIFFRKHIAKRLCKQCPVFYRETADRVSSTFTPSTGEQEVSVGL
Chain of LFA-1 (P20701 26-1170): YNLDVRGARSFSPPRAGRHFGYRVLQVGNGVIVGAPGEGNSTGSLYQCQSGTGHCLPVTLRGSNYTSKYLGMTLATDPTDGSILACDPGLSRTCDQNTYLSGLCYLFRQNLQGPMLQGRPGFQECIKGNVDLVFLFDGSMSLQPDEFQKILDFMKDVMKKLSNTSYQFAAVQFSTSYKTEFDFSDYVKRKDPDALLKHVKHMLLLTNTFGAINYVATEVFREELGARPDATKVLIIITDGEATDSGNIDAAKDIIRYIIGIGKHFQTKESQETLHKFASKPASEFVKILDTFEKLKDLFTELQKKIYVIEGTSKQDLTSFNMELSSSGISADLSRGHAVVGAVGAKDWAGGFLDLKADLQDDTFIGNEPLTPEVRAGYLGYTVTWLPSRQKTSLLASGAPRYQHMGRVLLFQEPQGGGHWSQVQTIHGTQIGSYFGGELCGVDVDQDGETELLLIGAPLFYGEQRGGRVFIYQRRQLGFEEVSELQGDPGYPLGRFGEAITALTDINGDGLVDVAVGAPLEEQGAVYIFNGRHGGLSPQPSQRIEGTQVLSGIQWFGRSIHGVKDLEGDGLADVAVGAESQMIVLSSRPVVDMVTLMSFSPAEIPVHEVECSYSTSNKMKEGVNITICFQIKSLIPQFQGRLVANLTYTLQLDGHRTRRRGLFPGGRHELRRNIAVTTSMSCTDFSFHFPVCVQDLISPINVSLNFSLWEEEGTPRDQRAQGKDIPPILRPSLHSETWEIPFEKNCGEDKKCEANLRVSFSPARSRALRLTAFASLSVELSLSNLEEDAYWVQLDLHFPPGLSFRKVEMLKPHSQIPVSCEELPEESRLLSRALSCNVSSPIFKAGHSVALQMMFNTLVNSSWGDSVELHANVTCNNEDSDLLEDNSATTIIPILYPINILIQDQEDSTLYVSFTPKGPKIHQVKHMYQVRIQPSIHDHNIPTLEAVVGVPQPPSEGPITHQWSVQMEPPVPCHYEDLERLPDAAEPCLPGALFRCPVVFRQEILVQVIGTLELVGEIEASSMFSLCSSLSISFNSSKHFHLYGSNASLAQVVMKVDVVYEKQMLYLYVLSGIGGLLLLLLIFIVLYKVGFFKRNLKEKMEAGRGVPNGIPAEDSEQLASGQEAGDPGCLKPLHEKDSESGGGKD
Chain of LFA-1 (P05107 23-769, further chain): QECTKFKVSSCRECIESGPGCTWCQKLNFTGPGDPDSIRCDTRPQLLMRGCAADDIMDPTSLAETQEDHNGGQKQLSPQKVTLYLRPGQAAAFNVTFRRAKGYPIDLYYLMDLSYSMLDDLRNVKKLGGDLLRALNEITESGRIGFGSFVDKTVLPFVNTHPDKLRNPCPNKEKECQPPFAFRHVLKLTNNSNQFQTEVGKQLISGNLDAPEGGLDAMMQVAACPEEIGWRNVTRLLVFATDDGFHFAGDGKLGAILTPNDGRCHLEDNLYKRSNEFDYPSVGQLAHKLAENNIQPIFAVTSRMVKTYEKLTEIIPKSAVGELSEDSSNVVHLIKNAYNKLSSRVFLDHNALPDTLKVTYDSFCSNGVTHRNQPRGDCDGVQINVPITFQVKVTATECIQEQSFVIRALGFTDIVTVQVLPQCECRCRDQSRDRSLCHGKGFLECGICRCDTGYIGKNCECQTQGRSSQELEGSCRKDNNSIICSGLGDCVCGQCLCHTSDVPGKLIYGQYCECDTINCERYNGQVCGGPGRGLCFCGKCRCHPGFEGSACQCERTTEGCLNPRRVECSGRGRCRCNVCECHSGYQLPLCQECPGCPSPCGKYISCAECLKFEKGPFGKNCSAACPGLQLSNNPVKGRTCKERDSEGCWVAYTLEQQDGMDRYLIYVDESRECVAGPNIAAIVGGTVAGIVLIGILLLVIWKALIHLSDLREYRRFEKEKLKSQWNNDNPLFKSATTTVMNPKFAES

Regarding CCL2 (ligand), in the experiment with CCR2 (mouse), the decrease in actin polymerization of naive T cells induced by CXCL12 or CCL21 (FITC-phalloidin, FACS) lay within 40 to 50% and the decrease in migration of naive T cells in a Transwell assay towards CXCL12 or CCL21 after pretreatment with CCL2 (0.1 ng/ml) is 40 to 50%.
In experiment [1], “LFA-1 (from UniProt P20701 26-1170; P05107 23-769) (receptor; other documents disagree on this pair)” gave a percent of cellular tethers to ICAM-1 blocked by LFA-1 blockers greater than 90%.
